Results reported in PMC5538626 (EMBO Reports, 2017).
Ends that are not written are not given here.

Key:
Settings in all cases: both partners purified
6xHis‐tagged GABARAP = biological target: T1, 6xHis‐tagged GABARAP (human, UniProt O95166 1-117); assay: ELISA; called peptide array: biotinylated peptides immobilised on streptavidin-coated 96-well plates; 1 μM His6-mATG8 in PBS, 0.1% Tween-20, 1% BSA, 1 h, 8°C; anti-His-HRP, TMB, absorbance at 450 nm
T1 construct: GABARAP, human; also called His6‐GABARAP; source: E. coli, isolated

6xHis‐tagged LC3C = biological target: T2, 6xHis‐tagged LC3C (human, UniProt Q9BXW4 1-126); assay: as above
T2 construct: LC3C, human; also called His6‐LC3C; source: E. coli, isolated

6xHis‐tagged LC3B = 6xHis‐tagged LC3B (human, UniProt Q9GZQ8 1-120); assay: as above
6xHis‐tagged LC3A = biological target: T3, 6xHis‐tagged LC3A (human, UniProt Q9H492 1-121); assay: as above
T3 construct: LC3A (MAP1LC3A), human; also called His6‐LC3A; MAP1LC3A; source: E. coli, isolated

6xHis‐tagged GABARAP‐L2 = biological target: T4, 6xHis‐tagged GABARAP‐L2 (human, UniProt P60520 1-117); assay: as above
T4 construct: GABARAP-L2/GATE-16, human; also called His6‐GABARAP‐L2; GATE‐16; source: E. coli, isolated

6xHis‐tagged GABARAP‐L1 = biological target: T5, 6xHis‐tagged GABARAP‐L1 (human, UniProt Q9H0R8 1-117); assay: as above
T5 construct: GABARAP-L1, human; also called His6‐GABARAP‐L1; source: E. coli, isolated

[1] = biological target: T6, GABARAP (for ITC and NMR) (human, UniProt O95166 1-117); assay: ITC; peptide 0.4 mM titrated into 0.020 mM LC3/GABARAP protein in 26 steps, 25°C; 50 mM Na2HPO4, 100 mM NaCl, pH 7.0; one-site model
T6 construct: GABARAP, human; source: E. coli NEB T7 Express, purified

6xHis-tagged GABARAP-L1 = biological target: T7, 6xHis-tagged GABARAP-L1 (human, UniProt Q9H0R8 1-117); assay: peptide or protein array; biotinylated peptides immobilised on streptavidin-coated 96-well plates, 1 uM His6-tagged mATG8 in PBS, 0.1% Tween-20, 1% BSA, 1 h at 8 C, detected with anti-His-HRP and TMB at 450 nm; expressed relative to the WT LIR peptide
T7 construct: GABARAP-L1, human; also called HIS6-GABARAP-L1; source: isolated from E. coli

6xHis-tagged GABARAP = biological target: T8, 6xHis-tagged GABARAP (human, UniProt O95166 1-117); assay: as above
T8 construct: GABARAP, human; also called HIS6-GABARAP; source: isolated from E. coli

LC3B K30R = LC3B K30R (human, UniProt Q9GZQ8 1-120, K30R); assay: ITC; peptide at 0.4 mM titrated into 0.020 mM LC3B or GABARAP protein in 26 steps, 25 C, VP-ITC, one-site model; 50 mM Na2HPO4, 100 mM NaCl, pH 7.0
GABARAP R28K = biological target: T9, GABARAP R28K (human, UniProt O95166 1-117, R28K); assay: as above
T9 construct: GABARAP, human, with R28K; also called GABARAP R28K mutant

LC3B (for ITC and NMR) = LC3B (for ITC and NMR) (human, UniProt Q9GZQ8 1-120); assay: ITC; peptide 0.4 mM titrated into 0.020 mM LC3/GABARAP protein in 26 steps, 25°C; 50 mM Na2HPO4, 100 mM NaCl, pH 7.0; one-site model
[2] = biological target: T10, GABARAP‐L2 (for ITC and NMR) (human, UniProt P60520 1-117); assay: as above
T10 construct: GABARAP-L2/GATE-16, human; 15N-labelled for NMR; also called GATE‐16; source: E. coli NEB T7 Express, purified

LC3A (for ITC and NMR) = biological target: T11, LC3A (for ITC and NMR) (human, UniProt Q9H492 1-121); assay: as above
T11 construct: LC3A, human; 15N-labelled for NMR; also called MAP1LC3A; source: E. coli NEB T7 Express, purified

LC3C (for ITC) = biological target: T12, LC3C (for ITC) (human, UniProt Q9BXW4 1-126); assay: as above
T12 construct: LC3C, human; source: E. coli NEB T7 Express, purified

[3] = biological target: T13, GABARAP‐L1 (for ITC and NMR) (human, UniProt Q9H0R8 1-117); assay: as above
T13 construct: GABARAP-L1, human; 15N-labelled for NMR; source: E. coli NEB T7 Express, purified
T13 sequence (Q9H0R8 whole entry): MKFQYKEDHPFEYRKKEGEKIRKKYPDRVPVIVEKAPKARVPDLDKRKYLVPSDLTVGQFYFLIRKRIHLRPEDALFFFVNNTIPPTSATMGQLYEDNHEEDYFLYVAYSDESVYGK

T9 sequence (O95166 whole entry R28K): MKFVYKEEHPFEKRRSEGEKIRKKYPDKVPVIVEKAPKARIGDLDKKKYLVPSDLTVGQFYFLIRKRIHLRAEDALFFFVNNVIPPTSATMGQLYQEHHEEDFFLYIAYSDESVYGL
T1 sequence (O95166 whole entry): as the sequence (O95166 whole entry R28K) above, with K28R counted along it
T6 sequence (O95166 whole entry): as the sequence (O95166 whole entry R28K) above, with K28R counted along it
T5 sequence (Q9H0R8 whole entry, looked up): as the sequence (Q9H0R8 whole entry) above
T10 sequence (P60520 whole entry): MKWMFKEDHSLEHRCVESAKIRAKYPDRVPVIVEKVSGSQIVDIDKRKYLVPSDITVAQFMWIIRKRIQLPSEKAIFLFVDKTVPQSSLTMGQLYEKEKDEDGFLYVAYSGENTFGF
T4 sequence (P60520 whole entry): as above
T12 sequence (Q9BXW4 1-126): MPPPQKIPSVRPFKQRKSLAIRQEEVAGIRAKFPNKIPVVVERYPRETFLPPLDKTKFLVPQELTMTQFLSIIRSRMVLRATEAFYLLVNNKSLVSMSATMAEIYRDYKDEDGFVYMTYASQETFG
T2 sequence (Q9BXW4 1-126): as above
T8 sequence (O95166 whole entry): as the sequence (O95166 whole entry R28K) above, with K28R counted along it
T7 sequence (Q9H0R8 whole entry, looked up): as the sequence (Q9H0R8 whole entry) above

B1: PLEKHM1‐LIR N637V peptide (biotinylated 9-mer) (peptide, UniProt Q9Y4G2 632-640, looked up)
peptide: EDEWVVVQY
modifications: also: biotinylated
notes: PLEKHM1 LIR; source: bought: JPT (biotinylated peptide)
- binding result (6xHis‐tagged GABARAP): binds
- binding result (6xHis‐tagged LC3C): binds
- binding result (6xHis‐tagged LC3B): binds
- binding result (6xHis‐tagged LC3A): binds
- binding result (6xHis‐tagged GABARAP‐L2): binds
- binding result (6xHis‐tagged GABARAP‐L1): binds

B2: PLEKHM1‐LIR W635Y peptide (biotinylated 9-mer) (peptide, UniProt Q9Y4G2 632-640, looked up)
peptide: EDEYVNVQY
modifications: also: biotinylated
notes: as for B1
- binding result (6xHis‐tagged GABARAP): binds
- binding result (6xHis‐tagged LC3C): binds
- binding result (6xHis‐tagged LC3B): binds
- binding result (6xHis‐tagged LC3A): binds
- binding result (6xHis‐tagged GABARAP‐L2): binds
- binding result (6xHis‐tagged GABARAP‐L1): binds

B3: PLEKHM1‐LIR V636G peptide (ITC) (peptide)
chain: PQQEDEWGNVQYPD
modifications: limits taken from the WT ITC peptide (P629-D642); N-terminal GAMG cloning remnant, printed only for WT, left out
- Ka [1]: 20000 M⁻¹
- Kd [1]: 52 µM
- dH [1]: -7.5 ± 0.1 kcal/mol

B4: PLEKHM1‐LIR V638I peptide (biotinylated 9-mer) (peptide, UniProt Q9Y4G2 632-640, looked up)
peptide: EDEWVNIQY
modifications: also: biotinylated
notes: as for B1
- binding result (6xHis‐tagged GABARAP): binds
- binding result (6xHis‐tagged LC3C): binds
- binding result (6xHis‐tagged LC3B): binds
- binding result (6xHis‐tagged LC3A): binds
- binding result (6xHis‐tagged GABARAP‐L2): binds
- binding result (6xHis‐tagged GABARAP‐L1): binds

B5: Biotinylated PLEKHM1-LIR V636L peptide (peptide)
peptide: EDEWLNVQY
modifications: also: biotinylated, position not given here
notes: also called V636X with X = L; L in position X1; source: synthetic peptide, bought: JPT, Germany
- binding result (6xHis-tagged GABARAP-L1): binds

B6: PLEKHM1‐LIR W635F peptide (biotinylated 9-mer) (peptide, UniProt Q9Y4G2 632-640, looked up)
peptide: EDEFVNVQY
modifications: also: biotinylated
notes: as for B1
- binding result (6xHis‐tagged GABARAP): binds
- binding result (6xHis‐tagged LC3C): binds
- binding result (6xHis‐tagged LC3B): binds
- binding result (6xHis‐tagged LC3A): binds
- binding result (6xHis‐tagged GABARAP‐L2): binds
- binding result (6xHis‐tagged GABARAP‐L1): binds

B7: PLEKHM1‐LIR N637W peptide (biotinylated 9-mer) (peptide, UniProt Q9Y4G2 632-640, looked up)
peptide: EDEWVWVQY
modifications: also: biotinylated
notes: as for B1
- binding result (6xHis‐tagged GABARAP): binds
- binding result (6xHis‐tagged LC3C): binds
- binding result (6xHis‐tagged LC3B): binds
- binding result (6xHis‐tagged LC3A): binds
- binding result (6xHis‐tagged GABARAP‐L2): binds
- binding result (6xHis‐tagged GABARAP‐L1): binds

B8: PLEKHM1‐LIR W635A peptide (ITC) (peptide)
chain: PQQEDEAVNVQYPD
modifications: limits taken from the WT ITC peptide (P629-D642); N-terminal GAMG cloning remnant, printed only for WT, left out
- Ka [1]: 10000 M⁻¹
- Kd [1]: > 100 µM
- dH [1]: -1.1 ± 0.1 kcal/mol

B9: PLEKHM1‐LIR N637Y peptide (biotinylated 9-mer) (peptide, UniProt Q9Y4G2 632-640, looked up)
peptide: EDEWVYVQY
modifications: also: biotinylated
notes: as for B1
- binding result (6xHis‐tagged GABARAP): binds
- binding result (6xHis‐tagged LC3C): binds
- binding result (6xHis‐tagged LC3B): binds
- binding result (6xHis‐tagged LC3A): binds
- binding result (6xHis‐tagged GABARAP‐L2): binds
- binding result (6xHis‐tagged GABARAP‐L1): binds

B10: PLEKHM1‐LIR N637L peptide (biotinylated 9-mer) (peptide, UniProt Q9Y4G2 632-640, looked up)
peptide: EDEWVLVQY
modifications: also: biotinylated
notes: as for B1
- binding result (6xHis‐tagged GABARAP): binds
- binding result (6xHis‐tagged LC3C): binds
- binding result (6xHis‐tagged LC3B): binds
- binding result (6xHis‐tagged LC3A): binds
- binding result (6xHis‐tagged GABARAP‐L2): binds
- binding result (6xHis‐tagged GABARAP‐L1): binds

B11: Biotinylated PLEKHM1-LIR V636I peptide (peptide, UniProt Q9Y4G2 632-640, looked up)
peptide: EDEWINVQY
modifications: also: biotinylated, position not given here
notes: also called V636X with X = I; I in position X1; source: synthetic peptide, bought: JPT, Germany
- binding result (6xHis-tagged GABARAP): binds

B12: PLEKHM1-LIR peptide (GAMG-P629QQEDEWVNVQYPD642) (peptide)
peptide: GAMGPQQEDEWVNVQYPD
notes: cloning artefact left after TEV cleavage; PLEKHM1, LIR region, residues 629-642; Used non-labelled in ITC and in the LC3C co-crystal, 15N-labelled in the NMR titrations with non-labelled proteins; The Appendix (D1:p2) calls the ITC peptide 'synthetic', the methods describe the recombinant preparation; also called PLEKHM1-LIR WT; PLEKHM1 629-642; source: E. coli NEB T7, expressed as …
- Ka (LC3B K30R): 190000 M⁻¹
- Kd (LC3B K30R): 5.26 µM
- stoichiometry N (LC3B K30R): 1.11 ± 0.02
- Ka (GABARAP R28K): 1.9e+06 M⁻¹
- Kd (GABARAP R28K): 0.54 µM
- stoichiometry N (GABARAP R28K): 1.05 ± 0.01

B13: PLEKHM1‐LIR peptide (GAMG‐P^629QQEDEWVNVQYPD^642) (peptide)
peptide: GAMGPQQEDEWVNVQYPD
notes: cloning artefact left after TEV cleavage; PLEKHM1 LIR, residues 629-642; 13C,15N- or 15N-labelled for some NMR experiments; also called PLEKHM1‐LIR WT; source: E. coli NEB T7, as Ub63 fusion, TEV-cleaved, purified (Ni-NTA, reverse Ni-NTA, gel filtration)
- Ka (LC3B (for ITC and NMR)): 160000 M⁻¹
- Kd (LC3B (for ITC and NMR)): 6.33 µM
- dH (LC3B (for ITC and NMR)): -5.8 ± 0.2 kcal/mol
- stoichiometry N (LC3B (for ITC and NMR)): 1.06 ± 0.01
- Ka [2]: 1.07e+06 M⁻¹
- Kd [2]: 0.93 µM
- dH [2]: -6.1 ± 0.1 kcal/mol
- stoichiometry N [2]: 1.05 ± 0.01
- Ka (LC3A (for ITC and NMR)): 240000 M⁻¹
- Kd (LC3A (for ITC and NMR)): 4.22 µM
- dH (LC3A (for ITC and NMR)): -7 ± 0.2 kcal/mol
- stoichiometry N (LC3A (for ITC and NMR)): 0.98 ± 0.02
- Ka (LC3C (for ITC)): 290000 M⁻¹
- Kd (LC3C (for ITC)): 3.45 µM
- dH (LC3C (for ITC)): -8.3 ± 0.2 kcal/mol
- stoichiometry N (LC3C (for ITC)): 0.99 ± 0.02
- Ka [3]: 1.3e+06 M⁻¹
- Kd [3]: 0.77 µM
- dH [3]: -7.8 ± 0.1 kcal/mol
- stoichiometry N [3]: 1 ± 0.01
- Ka [1]: 1.8e+06 M⁻¹
- Kd [1]: 0.55 µM
- dH [1]: -10.6 ± 0.1 kcal/mol
- stoichiometry N [1]: 1 ± 0.01

B14: PLEKHM1‐LIR V638L peptide (biotinylated 9-mer) (peptide, UniProt Q9Y4G2 632-640, looked up)
peptide: EDEWVNLQY
modifications: also: biotinylated
notes: as for B1
- binding result (6xHis‐tagged GABARAP): binds
- binding result (6xHis‐tagged LC3C): binds
- binding result (6xHis‐tagged LC3B): binds
- binding result (6xHis‐tagged LC3A): binds
- binding result (6xHis‐tagged GABARAP‐L2): binds
- binding result (6xHis‐tagged GABARAP‐L1): binds
